Positions count from the first letter of the chain named. Names and notes keep the numbering of the source.
B1: OPTN(26–103) (domain or fragment, human, UniProt Q96CV9 26-103, looked up)
chain: HLAHPNLDTFTPEELLQQMKELLTENHQLKEAMKLNNQAMKGRFEELSAWTEKQKEERQFFEIQSKEAKERLMALSHE
notes: Forms a dimer in the crystal of the complex with TBK1 CTD; also called short OPTN fragment; not shown: Trx-His6 (pET-32M) or GST (pET-GST), N-terminal, cleaved
B2: OPTN(26–103) E50K (domain or fragment, human, UniProt Q96CV9 26-103, looked up)
chain: B1 chain with E25K
notes: not shown: Trx-His6 (pET-32M) or GST (pET-GST), N-terminal, cleaved
B3: Trx-His-tagged TBK1 CTD (residues 677–729) (domain or fragment, human, UniProt Q9UHD2 677-729, looked up)
chain: YPSSNTLVEMTLGMKKLKEEMEGVVKELAENNHILERFGSLTMDGGLRNVDCL
notes: source: E. coli BL21 (DE3), purified (Ni-NTA, size-exclusion chromatography); not shown: Trx, N-terminal, kept; His6, N-terminal, kept
B4: TBK1 CTD (residues 677–729) (domain or fragment, human, UniProt Q9UHD2 677-729, looked up)
chain: B3 chain
notes: For the crystal with NAP1 TBD it was made as a NAP1(215–254)-TEV site-TBK1 CTD fusion that was cut with 3C and TEV; not shown: Trx-His6 (pET-32M) or GST (pET-GST), N-terminal, cleaved
B5: TBK1 CTD(E696K) (domain or fragment, human, UniProt Q9UHD2 677-729, looked up)
chain: B3 chain with E20K
notes: also called TBK1 E696K mutant; not shown: Trx-His6 (pET-32M) or GST (pET-GST), N-terminal, cleaved
B6: NAP1 TBD (residues 215–254) (domain or fragment, human, UniProt Q9H6S1 215-254, looked up)
chain: SSDNMQHAYWELKREMSNLHLVTQVQAELLRKLKTSTAIK
notes: For the crystal it was made as a NAP1(215–254)-TEV site-TBK1 CTD fusion that was cut with 3C and TEV; also called NAP1(215–254); not shown: Trx-His6 (pET-32M) or GST (pET-GST), N-terminal, cleaved
B7: OPTN(1–119) E50K mutant (domain or fragment, human, UniProt Q96CV9 1-119, looked up)
chain: MSHQPLSCLTEKEDSPSESTGNGPPHLAHPNLDTFTPEELLQQMKELLTKNHQLKEAMKLNNQAMKGRFEELSAWTEKQKEERQFFEIQSKEAKERLMALSHENEKLKEELGKLKGKSE
notes: as for B2

Tests used:
[1] = target: the molecule itself; assay: crystal structure; OPTN(26–103) or OPTN(26–103) E50K with TBK1 CTD; 0.1 M MES pH 6.0, 14% PEG 4000, 16 °C; 2.05 Å and 2.5 Å
[2] = target: T1, GST-tagged OPTN(26–119) M44Q (human, UniProt Q96CV9 26-119, M44Q); assay: pull-down; GST-tagged OPTN and Trx-His-tagged TBK1 mixed at 1:4, glutathione sepharose 4B beads; 50 mM Tris pH 7.5, 100 mM NaCl, 1 mM DTT, 1 mM EDTA; Coomassie or anti-His blot; conditions: both partners purified
T1 construct: source: E. coli BL21 (DE3), purified (glutathione sepharose 4B, size-exclusion chromatography); not shown: GST, N-terminal, kept

[3] = target: T2, GST-tagged OPTN(26–119) L47Q (human, UniProt Q96CV9 26-119, L47Q); assay: as above; conditions: both partners purified
T2 construct: source: E. coli BL21 (DE3), purified (glutathione sepharose 4B, size-exclusion chromatography); not shown: GST, N-terminal, kept

[4] = target: T3, GST-tagged OPTN(26–119) L54Q (human, UniProt Q96CV9 26-119, L54Q); assay: as above; conditions: both partners purified
T3 construct: source: E. coli BL21 (DE3), purified (glutathione sepharose 4B, size-exclusion chromatography); not shown: GST, N-terminal, kept

[5] = target: T4, OPTN(26–119) (human, UniProt Q96CV9 26-119); assay: ITC; 25 °C; 50 mM Tris pH 7.5, 100 mM NaCl, 1 mM EDTA, 1 mM DTT; 1 mM TBK1 fragment in the syringe, 0.1 mM OPTN or NAP1 fragment in the cell; one-site binding model; conditions: both partners purified
T4 construct: A Se-Met labelled form was used for the 2.5 Å crystal structure with TBK1 CTD; also called OPTN NTD; not shown: Trx-His6 (pET-32M) or GST (pET-GST), N-terminal, cleaved

[6] = target: T5, OPTN(26–119) E50K (human, UniProt Q96CV9 26-119, E50K); assay: as above; conditions: both partners purified
T5 construct: also called OPTN E50K mutant; not shown: Trx-His6 (pET-32M) or GST (pET-GST), N-terminal, cleaved

[7] = target: T6, OPTN(1–119) (human, UniProt Q96CV9 1-119); assay: as above; conditions: both partners purified
T6 construct: not shown: Trx-His6 (pET-32M) or GST (pET-GST), N-terminal, cleaved
T6 sequence (Q96CV9 1-119): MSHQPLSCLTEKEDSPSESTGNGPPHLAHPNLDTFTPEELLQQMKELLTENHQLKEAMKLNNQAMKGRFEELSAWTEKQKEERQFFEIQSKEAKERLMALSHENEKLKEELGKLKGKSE

[8] = target: the molecule itself; assay: crystal structure; NAP1 TBD/TBK1 CTD complex made as a fusion through a TEV site and cut with 3C and TEV; 1% tryptone, 0.05 M HEPES pH 7.0, 12% PEG 3350, 16 °C; 1.5 Å
[9] = target: B5; assay: ITC; 25 °C; 50 mM Tris pH 7.5, 100 mM NaCl, 1 mM EDTA, 1 mM DTT; 1 mM TBK1 fragment in the syringe, 0.1 mM OPTN or NAP1 fragment in the cell; one-site binding model; conditions: both partners purified
[10] = target: B4; assay: as above; conditions: both partners purified
[11] = target: the molecule itself; assay: SEC-MALS; 100 μl at 20 μM on Superose 12 10/300 GL; 50 mM Tris-HCl, 100 mM NaCl, 1 mM DTT, 1 mM EDTA, pH 7.5

B1
binding result [1]: binds

B2
binding result [1]: binds

B3
binding result [2]: binds | binding result [3]: binds | binding result [4]: binds

B4
Kd [5]: ~2500 nM | stoichiometry N [5]: 1.15 | fold increase of binding affinity against the wild-type OPTN [6]: ~43 fold | Kd [7]: ~2500 nM | binding result [8]: binds

B5
stoichiometry N [5]: 0.58

B6
binding result [9]: binds | Kd [10]: ~720 nM

B7
stoichiometry N [11]: 4

Source: publication PMC5027247, “Structural insights into the interaction and disease mechanism of neurodegenerative disease-associated optineurin and TBK1 proteins” (Nature Communications, 2016)
